Results published in patent US20220169679A1 (THAI UNION GROUP PUBLIC, published 2022).
Several values for one entry are separate records, joined by “and”; a condition that tells them apart may be missing. Equal entries are not always repeated.

Target: angiotensin I-converting enzyme (ACE)
Assay: cell-based or functional assay

IC50 of ACE inhibitory activity	Binder
0.27 µg/ml and 0.24 µM	VIYSRINCR [VIYSRINCR (SEQ ID NO: 5)]
0.89 µg/ml and 0.95 µM	VSVVQYSR [VSVVQYSR (SEQ ID NO: 4)]
0.93 µg/ml and 1.24 µM	NLLPHR [NLLPHR (SEQ ID NO: 3)]

Target: angiotensin I-converting enzyme (ACE)
Assay: cell-based or functional assay
Remark: another data set of the same source

ACE inhibition (%) at 1 mg/ml	Binder
45.3%	IFERL [IFERL (SEQ ID NO: 19)]
24.3%	IKVGGERF [IKVGGERF (SEQ ID NO: 29)]
33.4%	LIHAIL [LIHAIL (SEQ ID NO: 14)]
97%	VIYSRINCR [VIYSRINCR (SEQ ID NO: 5)]
77.7%	SFLMRK [SFLMRK (SEQ ID NO: 15)]
70.6%	GVPGIHGS [… (SEQ ID NO: 31)]
15.5%	VEWKERATE [VEWKERATE (SEQ ID NO: 27)]
71.7%	LPPGKIV [LPPGKIV (SEQ ID NO: 18)]
55.1%	VLMSQVFKQT [VLMSQVFKQT (SEQ ID NO: 16)]
94.2%	VSVVQYSR [VSVVQYSR (SEQ ID NO: 4)]
85.8%	GPLYHS [GPLYHS (SEQ ID NO: 13)]
1.9%	LEQVSAGTT [LEQVSAGTT (SEQ ID NO: 25)]
21.5%	KKLEKKTT [KKLEKKTT (SEQ ID NO: 30)]
25.9%	NGPSGQTG [NGPSGQTG (SEQ ID NO: 21)]
29.2%	LLDHRANL [LLDHRANL (SEQ ID NO: 22)]
94.9%	NLLPHR [NLLPHR (SEQ ID NO: 3)]
36.9%	VQSVPAT [VQSVPAT (SEQ ID NO: 26)]
2.91%	QGPPGNPG [QGPPGNPG (SEQ ID NO: 32)]
27%	HFAASGK [HFAASGK (SEQ ID NO: 24)]
88.4%	FDQFLPIH [FDQFLPIH (SEQ ID NO: 20)]
49%	MTGLPGPTGP [MTGLPGPTGP (SEQ ID NO: 33)]
68%	WTIHTP [WTIHTP (SEQ ID NO: 17)]
82%	APPHIF [APPHIF (SEQ ID NO: 23)]
79%	LLHAKPLN [LLHAKPLN (SEQ ID NO: 28)]

Target: angiotensin I-converting enzyme (ACE)
Assay: cell-based or functional assay
Remark: another data set of the same source

ACE inhibitory activity (%) at 1 µg/ml	ACE inhibitory activity (%) at 1 mg/ml	Binder
27.5%	98.8%	SRINCR [SRINCR (SEQ ID NO: 8)]
12.1%	97.8%	VIYSR [VIYSR (SEQ ID NO: 6)]
	18.5%	VIY
29.1%	101%	INCR [INCR (SEQ ID NO: 7)]
